The values below come from patent US20120316071A1.

Assay [1] addresses rHuman P-Cadherin/Fc Chimera, CF (R&D Systems Cat#861-PC) (human) (UniProt P22223). The assay is described as follows: MSD multispot ECL, antigen spotted, Fab […]; blank spot 234.
Assay [2] has the same target. The experiment in a line: MSD multispot ECL, antigen spotted, Fab 0.1 nM; blank spot 201.
The target is the same in assay [3]. The experiment in a line: MSD multispot ECL, antigen spotted, Fab 0.6 nM; blank spot 226.
Assay [4] has the same target. The assay is described as follows: MSD multispot ECL, antigen spotted, Fab 9.3 nM; blank spot 287.
For assay [5] the target is unchanged. The assay is described as follows: MSD multispot ECL, antigen spotted, Fab 2383 nM; blank spot 344.
Assay [6] shares this target. The assay is described as follows: MSD multispot ECL, antigen spotted, Fab 37.2 nM; blank spot 199.
Assay [7] has the same target. The experiment in a line: MSD multispot ECL, antigen spotted, Fab 148.9 nM; blank spot 218.
Assay [8] has the same target. The experiment in a line: MSD multispot ECL, antigen spotted, Fab 595.8 nM; blank spot 285.
In assay [9] the target is rHuman Erythropoietin R/Fc Chimera, CF (R&D Systems Cat#963-ER) (human) (UniProt P19235). The assay is described as follows: ECL multispot (MSD) assay, antigen spotted on plate, 10 nM Fab.
For assay [10], the target named is rHuman P-Cadherin/Fc Chimera, CF (R&D Systems Cat#861-PC) (human) (UniProt P22223). The assay is described as follows: MSD ECL multispot assay, antigen spotted on plate, Fab in solution; blank spot of this row 348.
Assay [11] shares this target. The assay is described as follows: MSD ECL multispot assay, antigen spotted on plate, Fab in solution; blank spot of this row 504.
Assay [12] has as its target rHuman Notch-1/Fc Chimera, CF (R&D Systems Cat#3647-TK) (human) (UniProt P46531). The experiment in a line: ECL Multispot (MSD) assay, antigen spotted on plate, 10 nM Fab.
For assay [13], the target named is rHuman CD44/Fc Chimera, CF (R&D Systems Cat#3660-CD) (human) (UniProt P16070). The experiment in a line: ECL multispot (MSD) binding assay; antigen spotted on plate, Fab in solution, Ru-labelled anti-kappa detection.
For assay [14], the target named is rHuman ErbB2/Fc Chimera, CF (R&D Systems Cat#1129-ER) (human) (UniProt P04626). The assay is described as above.
The target in assay [15] is rHuman Erythropoietin R/Fc Chimera, CF (R&D Systems Cat#963-ER) (human) (UniProt P19235). Described as above.
For assay [16], the target named is rHuman Notch-1/Fc Chimera, CF (R&D Systems Cat#3647-TK) (human) (UniProt P46531). The assay is described as above.
Assay [17] addresses rHuman CD44/Fc Chimera, CF (R&D Systems Cat#3660-CD) (human) (UniProt P16070). The experiment in a line: MSD multispot ECL, antigen spotted on plate, Fab at 6 nM (blank spot 191).
The target of assay [18] is rHuman EGF R/Fc Chimera, CF (R&D Systems Cat#344-ER) (human) (UniProt P00533). The description is as above.
For assay [19], the target named is rHuman ErbB2/Fc Chimera, CF (R&D Systems Cat#1129-ER) (human) (UniProt P04626). Described as above.
Assay [20] concerns the target rHuman Erythropoietin R/Fc Chimera, CF (R&D Systems Cat#963-ER) (human) (UniProt P19235). Described as above.
For assay [21], the target named is rHuman HGF R/c-MET/Fc Chimera, CF (R&D Systems Cat#358-MT/CF) (human) (UniProt P08581). The description is as above.
The target in assay [22] is rHuman IGF-1 sR, CF (R&D Systems Cat#391-GR) (human) (UniProt P08069). Described as above.
The target of assay [23] is rHuman Notch-1/Fc Chimera, CF (R&D Systems Cat#3647-TK) (human) (UniProt P46531). The assay is described as above.
Assay [24] deals with rHuman P-Cadherin/Fc Chimera, CF (R&D Systems Cat#861-PC) (human) (UniProt P22223). The assay is described as above.
The target of assay [25] is rHuman CD44/Fc Chimera, CF (R&D Systems Cat#3660-CD) (human) (UniProt P16070). The experiment in a line: MSD multispot ECL, antigen spotted on plate, Fab at 17 nM (blank spot 143).
Assay [26] deals with rHuman EGF R/Fc Chimera, CF (R&D Systems Cat#344-ER) (human) (UniProt P00533). The description is as above.
The target of assay [27] is rHuman ErbB2/Fc Chimera, CF (R&D Systems Cat#1129-ER) (human) (UniProt P04626). Described as above.
Assay [28] deals with rHuman Erythropoietin R/Fc Chimera, CF (R&D Systems Cat#963-ER) (human) (UniProt P19235). The description is as above.
The target of assay [29] is rHuman HGF R/c-MET/Fc Chimera, CF (R&D Systems Cat#358-MT/CF) (human) (UniProt P08581). The description is as above.
Assay [30] concerns the target rHuman IGF-1 sR, CF (R&D Systems Cat#391-GR) (human) (UniProt P08069). The assay is described as above.
The target in assay [31] is rHuman Notch-1/Fc Chimera, CF (R&D Systems Cat#3647-TK) (human) (UniProt P46531). Described as above.
The target of assay [32] is rHuman P-Cadherin/Fc Chimera, CF (R&D Systems Cat#861-PC) (human) (UniProt P22223). Described as above.
Assay [33] deals with rHuman CD44/Fc Chimera, CF (R&D Systems Cat#3660-CD) (human) (UniProt P16070). The assay is described as follows: MSD multispot ECL, antigen spotted on plate, Fab at 51 nM (blank spot 335).
The target of assay [34] is rHuman EGF R/Fc Chimera, CF (R&D Systems Cat#344-ER) (human) (UniProt P00533). Described as above.
Assay [35] addresses rHuman ErbB2/Fc Chimera, CF (R&D Systems Cat#1129-ER) (human) (UniProt P04626). Described as above.
The target in assay [36] is rHuman Erythropoietin R/Fc Chimera, CF (R&D Systems Cat#963-ER) (human) (UniProt P19235). The assay is described as above.
Assay [37] addresses rHuman HGF R/c-MET/Fc Chimera, CF (R&D Systems Cat#358-MT/CF) (human) (UniProt P08581). The description is as above.
Assay [38] concerns the target rHuman IGF-1 sR, CF (R&D Systems Cat#391-GR) (human) (UniProt P08069). The description is as above.
For assay [39], the target named is rHuman Notch-1/Fc Chimera, CF (R&D Systems Cat#3647-TK) (human) (UniProt P46531). The description is as above.
The target of assay [40] is rHuman P-Cadherin/Fc Chimera, CF (R&D Systems Cat#861-PC) (human) (UniProt P22223). The description is as above.
In assay [41] the target is rHuman CD44/Fc Chimera, CF (R&D Systems Cat#3660-CD) (human) (UniProt P16070). The assay is described as follows: MSD multispot ECL, antigen spotted on plate, Fab at 154 nM (blank spot 447).
The target of assay [42] is rHuman EGF R/Fc Chimera, CF (R&D Systems Cat#344-ER) (human) (UniProt P00533). Described as above.
Assay [43] deals with rHuman ErbB2/Fc Chimera, CF (R&D Systems Cat#1129-ER) (human) (UniProt P04626). Described as above.
In assay [44] the target is rHuman Erythropoietin R/Fc Chimera, CF (R&D Systems Cat#963-ER) (human) (UniProt P19235). The description is as above.
Assay [45] concerns the target rHuman HGF R/c-MET/Fc Chimera, CF (R&D Systems Cat#358-MT/CF) (human) (UniProt P08581). The description is as above.
Assay [46] has as its target rHuman IGF-1 sR, CF (R&D Systems Cat#391-GR) (human) (UniProt P08069). The description is as above.
Assay [47] has as its target rHuman Notch-1/Fc Chimera, CF (R&D Systems Cat#3647-TK) (human) (UniProt P46531). The description is as above.
For assay [48], the target named is rHuman P-Cadherin/Fc Chimera, CF (R&D Systems Cat#861-PC) (human) (UniProt P22223). The assay is described as above.

Take “Fab VH1-46_IGHD6-6*01_IGHJ1*01 & L6_IGKJ1*01”: the ECL signal in assay [1] is 401 ECL signal; in [2] it was 235 ECL signal; in [3], 321 ECL signal; in [4], 452 ECL signal; in assay [5], 728 ECL signal; in assay [6], 649 ECL signal. Moreover, the ECL signal in assay [7] worked out at 687 ECL signal; in assay [8] it was 617 ECL signal.

Turning to “Fab VH1-46_IGHD6-6*01_IGHJ1*01 S102A/S103P/S104F/H111F & L6_IGKJ1*01”, the ECL signal in assay [9] was determined as 438.

For “Fab VH1-46_IGHD6-6*01_IGHJ1*01 S102A/S103P/S104F/H111F (APFF) & L6_IGKJ1*01 S92C”, the ECL signal in assay [10] turned out to be 786; in assay [11] it was 930.

With “Fab VH1-46_IGHD6-6*01_IGHJ1*01 S102A/S103P/S104F/H111F F29A & L6_IGKJ1*01”, the ECL signal in assay [12] worked out at 374; in assay [13], 978; in assay [14], 1290; in assay [15], 1060; in assay [16], 6090.

For “Fab VH5-51_IGHD5-18*01>3_IGHJ4*01 & V3-4_IGLJ1*01”, the ECL signal turned out to be 547 in assay [17]; 742 in [18]; 873 in assay [19]; 548 in [20]; 831 in assay [21]; 854 in [22]. In addition, the ECL signal in assay [23] was determined as 464; in [24], 358; in [25] it was 518; in [26], 805; in [27] it was 1030; in [28], 620. Further, the ECL signal is 914 in assay [29]; 872 in [30]; 558 in assay [31]; 542 in assay [32]; 651 in assay [33]; 816 in [34]. Further, the ECL signal in [35] was 1250; in assay [36], 750; in [37], 1040; in [38], 1050; in [39], 685; in [40], 854. In addition, the ECL signal came to 960 in assay [41]; 1400 in assay [42]; 1590 in assay [43]; 1200 in assay [44]; 1520 in [45]; 1400 in assay [46]. Also, the ECL signal in [47] was found to be 929; in assay [48], 1730.
